Assay in all cases: two-hybrid library CCNG1;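 note: natural log of median RNA to DNA barcode read ratio; higher means stronger binding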
For test [1], the target named is T1, 4H2692-bH.
T1 chain: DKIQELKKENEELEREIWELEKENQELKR

In test [2] the target is T2, 4H3277-bH.
T2 chain: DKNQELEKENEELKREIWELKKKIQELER

Test [3] addresses T3, 4H2438-bH.
T3 chain: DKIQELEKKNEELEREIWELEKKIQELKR

Test [4] addresses T4, 4H3057-bH.
T4 chain: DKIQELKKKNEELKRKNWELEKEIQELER

For test [5], the target named is T5, 4H477-bH.
T5 chain: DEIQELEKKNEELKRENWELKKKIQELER

Test [6] addresses T6, 4H2839-bH.
T6 chain: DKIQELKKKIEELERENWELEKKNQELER

The target of test [7] is T7, 4H2473-bH.
T7 chain: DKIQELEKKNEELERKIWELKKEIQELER

In test [8] the target is T8, 4H2503-bH.
T8 chain: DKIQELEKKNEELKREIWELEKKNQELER

For test [9], the target named is T9, 4H741-bH.
T9 chain: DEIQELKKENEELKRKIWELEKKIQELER

Test [10] concerns the target T10, 4H2223-bH.
T10 chain: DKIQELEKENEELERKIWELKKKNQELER

For test [11], the target named is T11, 4H2915-bH.
T11 chain: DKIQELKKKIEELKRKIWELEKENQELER

Test [12] addresses T12, 4H2588-bH.
T12 chain: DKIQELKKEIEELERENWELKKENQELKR

Test [13] deals with T13, 4H319-bH.
T13 chain: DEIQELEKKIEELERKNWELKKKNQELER

Test [14] deals with T14, 4H40-bH.
T14 chain: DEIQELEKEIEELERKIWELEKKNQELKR

For test [15], the target named is T15, 4H348-bH.
T15 chain: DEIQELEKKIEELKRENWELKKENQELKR

The target of test [16] is T16, 4H492-bH.
T16 chain: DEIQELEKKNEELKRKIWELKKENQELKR

Test [17] concerns the target T17, 4H2717-bH.
T17 chain: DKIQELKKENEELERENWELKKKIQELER

The target of test [18] is T18, P4mS.
T18 chain: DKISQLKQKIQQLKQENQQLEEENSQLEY

Test [19] concerns the target T19, P6mS.
T19 chain: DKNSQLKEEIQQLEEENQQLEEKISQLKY

The target in test [20] is T20, P7mS.
T20 chain: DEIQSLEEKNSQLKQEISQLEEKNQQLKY

Test [21] concerns the target T21, P5mS.
T21 chain: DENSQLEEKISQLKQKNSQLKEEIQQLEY

The target in test [22] is T22, P9mS.
T22 chain: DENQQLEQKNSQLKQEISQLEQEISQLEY

Test [23] has as its target T23, P8mS.
T23 chain: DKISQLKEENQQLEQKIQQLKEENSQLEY

Test [24] concerns the target T24, 4H3628-bN.
T24 chain: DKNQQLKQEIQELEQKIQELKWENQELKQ

For test [25], the target named is T25, 4H850-bN.
T25 chain: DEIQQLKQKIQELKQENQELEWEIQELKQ

In test [26] the target is T26, 4H3613-bN.
T26 chain: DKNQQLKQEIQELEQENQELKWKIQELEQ

For test [27], the target named is T27, 4H3175-bN.
T27 chain: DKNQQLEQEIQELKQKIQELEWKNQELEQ

Test [28] deals with T28, 4H2697-bH.
T28 chain: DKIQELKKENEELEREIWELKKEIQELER

Test [29] concerns the target T29, 4H3277-bN.
T29 chain: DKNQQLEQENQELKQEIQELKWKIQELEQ

Test [30] deals with T30, 4H626-bN.
T30 chain: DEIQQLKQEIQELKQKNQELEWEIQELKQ

Test [31] addresses T31, 4H3974-bN.
T31 chain: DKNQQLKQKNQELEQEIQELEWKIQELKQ

In test [32] the target is T32, 4H1985-bN.
T32 chain: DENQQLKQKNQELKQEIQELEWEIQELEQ

The target in test [33] is T33, 4H906-bN.
T33 chain: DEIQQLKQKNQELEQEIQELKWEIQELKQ

Test [34] has as its target T34, 4H3497-bN.
T34 chain: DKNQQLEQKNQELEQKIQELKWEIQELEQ

Test [35] deals with T35, 4H3817-bN.
T35 chain: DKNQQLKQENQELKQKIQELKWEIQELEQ

In test [36] the target is T36, 4H72-bN.
T36 chain: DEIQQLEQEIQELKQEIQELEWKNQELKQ

Test [37] concerns the target T37, 4H3298-bN.
T37 chain: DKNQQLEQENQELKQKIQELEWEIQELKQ

The target in test [38] is T38, 4H1544-bN.
T38 chain: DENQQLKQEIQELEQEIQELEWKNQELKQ

Test [39] has as its target T39, 4H3926-bN.
T39 chain: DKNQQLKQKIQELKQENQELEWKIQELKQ

The target of test [40] is T40, 4H3462-bN.
T40 chain: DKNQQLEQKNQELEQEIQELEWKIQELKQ

Test [41] has as its target T41, 4H338-bH.
T41 chain: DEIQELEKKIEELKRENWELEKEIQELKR

Test [42] deals with T42, 4H1899-bN.
T42 chain: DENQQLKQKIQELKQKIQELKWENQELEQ

The target of test [43] is T43, 4H591-bN.
T43 chain: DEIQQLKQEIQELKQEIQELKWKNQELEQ

Test [44] has as its target T44, 4H1449-bN.
T44 chain: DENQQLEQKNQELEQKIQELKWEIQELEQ

Test [45] concerns the target T45, 4H570-bN.
T45 chain: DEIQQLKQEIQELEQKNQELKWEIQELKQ

The target in test [46] is T46, 4H3162-bN.
T46 chain: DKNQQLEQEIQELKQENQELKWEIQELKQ

Test [47] concerns the target T47, 4H1710-bN.
T47 chain: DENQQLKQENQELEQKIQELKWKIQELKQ

Test [48] addresses T48, 4H3858-bN.
T48 chain: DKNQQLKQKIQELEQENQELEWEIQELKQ

The target of test [49] is T49, 4H1373-bN.
T49 chain: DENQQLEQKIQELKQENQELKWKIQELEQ

Test [50] has as its target T50, 4H918-bN.
T50 chain: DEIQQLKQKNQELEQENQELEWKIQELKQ

The target of test [51] is T51, 4H967-bN.
T51 chain: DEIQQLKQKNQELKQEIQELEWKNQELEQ

Test [52] has as its target T52, 4H3354-bN.
T52 chain: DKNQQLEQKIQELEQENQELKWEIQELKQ

In test [53] the target is T53, 4H908-bN.
T53 chain: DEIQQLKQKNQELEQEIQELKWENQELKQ

Test [54] has as its target T54, 4H3855-bN.
T54 chain: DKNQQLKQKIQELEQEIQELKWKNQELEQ

Test [55] addresses T55, 4H797-bN.
T55 chain: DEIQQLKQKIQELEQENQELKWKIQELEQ

Test [56] deals with T56, 4H754-bN.
T56 chain: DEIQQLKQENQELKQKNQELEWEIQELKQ

The target in test [57] is T57, 4H331-bN.
T57 chain: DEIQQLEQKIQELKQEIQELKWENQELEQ

The target in test [58] is T58, 4H4001-bN.
T58 chain: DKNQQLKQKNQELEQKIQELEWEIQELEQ

The target of test [59] is T59, 4H717-bN.
T59 chain: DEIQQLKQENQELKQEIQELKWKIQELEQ

Test [60] deals with T60, 4H454-bN.
T60 chain: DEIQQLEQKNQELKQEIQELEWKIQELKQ

In test [61] the target is T61, 4H3782-bN.
T61 chain: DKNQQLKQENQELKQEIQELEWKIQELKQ

Test [62] deals with T62, 4H568-bN.
T62 chain: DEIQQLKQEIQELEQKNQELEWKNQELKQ

Test [63] addresses T63, 4H3185-bN.
T63 chain: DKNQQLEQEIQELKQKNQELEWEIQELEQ

The target in test [64] is T64, 4H883-bN.
T64 chain: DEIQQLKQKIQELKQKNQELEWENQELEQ

The target in test [65] is T65, 4H607-bN.
T65 chain: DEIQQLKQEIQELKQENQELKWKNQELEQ

For test [66], the target named is T66, 4H953-bN.
T66 chain: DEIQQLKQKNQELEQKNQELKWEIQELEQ

Test [67] concerns the target T67, 4H687-bN.
T67 chain: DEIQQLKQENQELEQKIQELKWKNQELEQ

Test [68] concerns the target T68, 4H338-bN.
T68 chain: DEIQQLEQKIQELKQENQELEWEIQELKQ

The target of test [69] is T69, 4H3427-bN.
T69 chain: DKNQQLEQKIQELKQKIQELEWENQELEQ

Test [70] has as its target T70, P9SHb.
T70 chain: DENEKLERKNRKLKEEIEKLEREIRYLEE

As to DKIQELEKENEELERKIWELKKKNQELER [4H2223-bH], the interaction score in [1] was 0.736; in test [2] it was 0.0226; in test [3], -0.678; in [4], 0.455; in test [5], -0.907; in [6], 0.582. Moreover, the interaction score in test [7] was 0.446; in test [8], 1.19; in test [9], 0.0741; in test [10], -0.882; in [11], 0.816; in test [12], 0.461. The interaction score was -0.374 in test [13]; -1.6 in test [14]; -1.35 in test [15]; -0.847 in [16]; 0.113 in test [17].

On to DKISQLKQKIQQLKQENQQLEEENSQLEY [P4mS], for which the interaction score was -1.66 in test [18]; -1.48 in [19]; -1.14 in test [20]; -1.04 in [21]; -1.28 in test [22]; -1.85 in test [23].

Regarding DENQQLEQKIQELKQENQELKWKIQELEQ [4H1373-bN], the interaction score in test [24] was -0.846; in [25] it was -0.952; in [26], 1.13; in test [27] it was -0.941; in test [28], -2.86; in [29], -1.18. Further, the interaction score was -0.375 in test [30]; -0.592 in test [31]; -1.63 in test [32]; -1.37 in [33]; -1.41 in test [34]; -0.749 in test [35]. In addition, the interaction score in test [36] was -2.48; in test [37] it was -0.763; in [38] it was -0.522; in test [39], 1.21; in test [40] it was -0.946; in [41], -0.758. Besides, the interaction score was -1.32 in test [42]; -0.619 in test [43]; -0.869 in test [44]; -1.29 in test [45]; -0.675 in test [46]; -0.292 in test [47]. Besides, the figures for the interaction score in test [48] and in test [49] were 0.337 and -0.169, respectively.

On to DKNQQLEQEIQELKQKNQELEWEIQELEQ [4H3185-bN], for which the interaction score is -1.19 in test [50]; -0.366 in [18]; -2.19 in [51]; -0.593 in test [52]; -0.952 in [53]; -1.23 in [54]. Also, the interaction score in test [55] is -0.638; in test [36], -2.24; in test [56], -0.979; in [57], -2.02; in test [58], -1.46; in test [59], -0.903. Further, the interaction score was -2.08 in test [60]; -0.997 in [61]; -2.82 in [62]; -1.05 in [63]; -1.12 in [64]; -0.581 in test [65]. Besides, the interaction score in test [66] is -1.45; in test [67] it was -2.77; in [68] it was -1.14; in [69], -0.99; in [70] it was -0.815.

Values taken from paper PMC10397247.
